1 substance from patent publication US20100015155A1 can be followed below.

In the assay the target is human soluble Abeta (1-40) (human) (UniProt P05067). The assay can be described thus: KinExA equilibrium, antigen on sepharose beads, soluble Abeta (1-40) titrated, 37 C.
human soluble Abeta (1-40) (human), sequence (P05067 672-711 limits assumed): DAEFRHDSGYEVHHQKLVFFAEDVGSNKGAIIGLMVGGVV

Substance “murine 266 Fab (Fab fragment of the murine monoclonal antibody designated 266)” came in with a Kd of 0.24 nM.
